Here are results for 2 molecules from US20080176247A1 (INDUSTRIAL TECHNOLOGY RESEARCH INSTITUTE, published 2008).

What is called Kd is the equilibrium constant for the complex coming apart. Broadly, the koff is the rate constant with which the complex falls apart. The term kon denotes the second-order rate constant of association.

The experiment addresses T1, purified recombinant extracellular domain of EGF receptor (EGFR-ECD; Research Diagnostics, Inc.) (UniProt P00533 25-645, limits assumed).
T1 construct: extracellular domain; Bought protein
Briefly: SPR (BIAcore X), EGFR-ECD immobilized on C1 chip, 1:1 Langmuir fit. The protocol:
Each antibody was injected at indicated concentrations and flowed over a surface chip with immobilized EGFR extracellular domain at a flow rate of 10 μl/min.
The surface was regenerated by injection of 5 μl of 10 mM glycine-HCl, pH 3.5. Sensorgrams were obtained at each concentration and were evaluated using the program, BIA Evaluation 3.2. Binding data were titled with a 1:1 Langmuir binding model to calculate the equilibrium dissociation constant, KD, which was defined as the ratio of dissociation rate (koff)/association rate (kₒₙ).
In general terms: SPR reads the build-up and loss of mass on a sensor chip optically.

B1: erb_scFv (scFv, not shown: small tags and cut ends)
scFv: MAEVQLLESGGGLVQPGGSLRLSCAASGFTFSSYAMSWVRQAPGKGLEWVSDIGASGSATSYADSVKGRFTISRDNSKNTLYLQMNSLRAEDTAVYYCAKSTTTFDYWGQGTLVTVSSGGGGSGGGGSGGGGSTDIQMTQSPSSLSASVGDRVTITCRASQSISSYLNWYQQKPGKAPKLLIYDASALQSGVPSRFSGSGSGTDFTLTISSLQPEDFATYYCQQYADYPTTFGQGTKVEIKR
notes: Made in NS0 cells for the SPR work
For B1, the Kd stood at 4960 nM, the koff is 0.0741 s⁻¹ and the kon was determined as 15000 M⁻¹ s⁻¹.

B2: erb_scFv-Fc (Fc fusion)
chain: B1 scFv
notes: not shown: Fc region
As for B2, the Kd is 104 nM, the koff is 0.00944 s⁻¹ and the kon is 90900 M⁻¹ s⁻¹.
